No end group written: not given here.
B1: TAG 4 peptide, fluoresceinated (peptide)
peptide: CEIKRAAAINLKALAALAKKILIK
modifications: also: fluorescein label, site not given here
B2: TAG 2 peptide, fluoresceinated (peptide)
peptide: CEIKRAAAINLKALAALAKKIL
modifications: also: fluorescein label, site not given here

Biological target: calmodulin (Homo sapiens (Human))
Assay: not stated (off-rate from calmodulin)

| Binder | koff |
| --- | --- |
| B1 | < 0.0001 s⁻¹ |
| B2 | < 0.0001 s⁻¹ |
